The assay deals with T1, His-LEC1 (LEAFY COTYLEDON1) (Arabidopsis, UniProt Q9SFD8 1-238).
T1 construct: LEAFY COTYLEDON1 (LEC1), NF-Y transcription factor, Arabidopsis, AT1G21970; Vector pQE30; source: E. coli Rosetta DE3, purified (Ni-nitrilotriacetic acid agarose beads)
T1 sequence (looked up): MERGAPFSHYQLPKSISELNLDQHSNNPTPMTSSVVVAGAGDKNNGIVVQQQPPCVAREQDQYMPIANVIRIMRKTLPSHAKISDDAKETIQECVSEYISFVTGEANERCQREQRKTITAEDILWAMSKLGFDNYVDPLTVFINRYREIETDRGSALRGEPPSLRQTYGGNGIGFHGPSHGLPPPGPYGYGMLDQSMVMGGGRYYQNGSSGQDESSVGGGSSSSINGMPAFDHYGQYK
As to the kind of experiment: pull-down; 2 μg of His-LEC1 or His-GFP incubated with immobilized GST or GST fusion proteins; 50 mM Tris-HCl pH 8.0, 100 mM NaCl, 1 mM EDTA; 4°C, 4 h; detected with an anti-His antibody. The settings on record: both partners purified.

Here are results for 1 molecule from article PMC4630568, “Arabidopsis LEAFY COTYLEDON1 controls cell fate determination during post-embryonic development” (Frontiers in Plant Science, 2015).

B1: GST-TCL2 (TRICHOMELESS2) (natural protein, Arabidopsis, UniProt B3H4X8 1-100, looked up)
chain: MDNTNRLRHLRSRKQSKFTLGDTAEVNSVKWEFINMTEQEEDLIFRMHRLVGDRWDLIAGRVVGREAKDIERYWIMRNCDHCSHKRRRVHKFYRFSISPP
notes: TCL2, single-repeat R3 MYB protein, Arabidopsis, AT2G30424; Vector pGEX-4T-1; source: E. coli Rosetta DE3, purified (glutathione sepharose beads)
For B1, the binding result is “binds”.
